Data taken from patent publication US20070184522A1, “Cell death modulation via antagonists of Fasl and Fas activation” (University of Pittsburgh of the Commonwealth System of …, priority 2004, published 2007).
Blank lines part the entries; values can stand above or below the molecule they belong to.

Legend:
Fas-Fc = target: T1, Fas-Fc (Mus musculus, UniProt P25446); assay: ELISA of Fas-Fc binding to coated synthetic polypeptides; settings: peptides coated at 1 μg/ml, increasing Fas-Fc, OD 450 nm
T1 construct: purchased R&D
T1 sequence (P25446 22-169 limits assumed): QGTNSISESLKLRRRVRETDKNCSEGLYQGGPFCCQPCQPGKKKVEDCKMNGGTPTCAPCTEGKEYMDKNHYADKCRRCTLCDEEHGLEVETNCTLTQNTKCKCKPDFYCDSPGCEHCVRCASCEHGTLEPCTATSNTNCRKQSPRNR
Source text: The Met alpha but not beta chain binds to Fas (FIG. 1a). Various regions of the mouse Met cDNA corresponding to the alpha chain or the extra-cellular portion of the Met beta chain were cloned into expression vectors (pCRT7 TOPO/AlphaMet or pCRT7 TOPO/beta chain) and subjected to in vitro transcription/translation by a rabbit reticolucyte lysate translation system. Empty vector was included in each experiment as a control. The expressed proteins were labeled with ^35S-Methionine. Pull down assays were performed using Fas-Fc, a chimeric molecule which lacks the interacellular cytoplasmic domain and protein-A agarose as described in Wang et al., 2002. FIG. 1b is a schematic presentation of the Met alpha chain and its mutant version used to map the region interacting with Fas. The C-terminus of each construct contains a hexa-Histidine tag for ease of detection. Start cordon ATG was added to the N-terminally truncated constructs. The YLGA (SEQ ID NO:1) motif mutation was prepared by PCR, in which YLGA (SEQ ID NO:1) was replaced by DHER (SEQ ID NO:24). […] In vitro translated ^35S-methionine labeled truncated/mutated AlphaMet proteins were pulled down with 2 μg of Fas-Fc or the same amount of IgG. Lane 1: 10% of AlphaMet input; Lane 2: AlphaMet with IgG control; Lanes 3 to 8: pull down of various truncated AlphaMet proteins; N-terminal 1-106 residues; C-terminal truncated, residues 1-210; alpha chain, residues 1-306; alpha chain with transmembrane domain, 1-338; N-terminally truncated alpha chain, residues 100-306; and N-terminally truncated with addition of the transmembrane domain 100-338, respectively. FIG. 1d depicts the amino acid sequence alignment of alpha chain with FasL, determined using the CLUSTALW, SIM+LALNVIEW, and ALIGN at ExPASy Proteomic Tools (available on the internet at us.expresly.org/tools). The numbers indicate the amino acid residues of the indicated protein. […] Recombinant His-tagged AlphaMet or its mutant version were expressed in E. coli, purified with chromatography, and subjected to Fas-Fc (lanes labeled Fas) or control IgG pull down experiments, and detected by Western blot using anti-His antibody that recognizes C-terminal His. This antibody also recognizes the Fas-Fc which is also tagged at the C-terminus by His. […] Purified recombinant AlphaMet protein (approximately 10 μg) was mixed with Hepa 1-6 cells or Jurkat cell lysates and subjected to immunoprecicitation using anti-Fas antibody or control IgG followed by Western blot using anti His-tag antibody as a probe. […] Peptides (1 μg/ml) were coated into the 96-well microtiter plates in triplicate and after blocking with 1% BSA, increasing amounts of Fas-Fc were added as indicated. The control peptide was a scrambled 13 mer. After washing the wells, anti-human […]-HRP conjugates (1:20,000) were added to detect the bound Fas-Fc using TMD dye and the OD value was determined at a wavelength of 450 nm. One-way ANOVA was carried out for determination of statistical significance.
ELISA. Synthesized polypeptides (Genemed Synthesis, Inc. South San Francisco, Calif.) were dissolved in water and diluted in the coating buffer (0.05M of Sodium Carbonate, 0.02% of Sodium Azide, pH 9.6) to a final concentration of 1 ug/ml. One hundred microliter aliquots were added to coat each well of a 96-well microtitre plate. The coated plates were then washed with PBS-Tween (0.5%) three times. The plates were blotted and dried by tapping upside down on tissue paper. They were blocked using 200 μl of 1% of BSA in PBS solution followed by a 2 hour incubation. Plates were washed another three times, Fas-Fc was added, and the plates were incubated for another 2 hours. The plates were washed three times and anti-human IgM Fc HRP conjugates were included at a final concentration of 1:20,000, and incubated for 1 hour. Plates were washed three times again and ready-to-use TMD was added and incubated for 30 minutes. The color reaction was stopped by 2M of Sulfuric Acid. […]

[1] = target: T2, Fas-Fc / Fas ligand binding (Mus musculus, UniProt P25446); assay: Competition ELISA: coated Fas ligand, Fas-Fc added with increasing amounts of polypeptide; settings: Fas ligand 1 μg/ml coated, Fas-Fc 1 μg/ml
T2 construct: purchased R&D
T2 sequence (P25446 22-169 limits assumed): T1 sequence (P25446 22-169 limits assumed)
Description: This antibody also recognizes Fas-Fc which is also tagged at the C-terminus by His. In FIG. 2b, a fixed amount of purified recombinant Fas-ligand was added to Fas-Fc in the absence or presence of increasing amounts of AlphaMet as indicated. Samples were subjected to pull down using proteinA agarose followed by Western blot using a polyclonal rabbit anti-FasL antibody. […] Fas ligand (1 μg/ml) was coated in the wells of a microtiter plate (triplicate wells) then 1 μg/ml of Fas-Fc was added in the absence or presence of an increasing amount of the indicated polypeptide. A 13 mer YLGA polypeptide derived from FasL also was synthesized and used. The control peptide was a scrambled 13 mer. Anti human IgM-HRP conjugates were used to detect the bound Fas-Fc. […] One-way ANOVA was carried out for determination of statistical significance. […] Cells (3×10^5) were plated in 24-well plates having Poly-L-Lysine pre-treated cover glass. 2 μg/ml of Fas ligand was added and the cells were incubated for 30 min on ice. Cells were then washed by PBS twice, and were subjected to immunostaining using anti-Fas ligand antibody and fluorescent microscopy. In Frame A, Fas ligand was not added, in B, only Fas ligand was added, in C-F, Fas ligand was added with different polypeptides as follows: AlphaMet, 12 mer YLGA, control peptide, and YLGA mutated AlphaMet, respectively.
ELISA. Synthesized polypeptides (Genemed Synthesis, Inc. South San Francisco, Calif.) were dissolved in water and diluted in the coating buffer (0.05M of Sodium Carbonate, 0.02% of Sodium Azide, pH 9.6) to a final concentration of 1 ug/ml. One hundred microliter aliquots were added to coat each well of a 96-well microtitre plate. The coated plates were then washed with PBS-Tween (0.5%) three times. The plates were blotted and dried by tapping upside down on tissue paper. They were blocked using 200 μl of 1% of BSA in PBS solution followed by a 2 hour incubation. Plates were washed another three times, Fas-Fc was added, and the plates were incubated for another 2 hours. The plates were washed three times and anti-human IgM Fc HRP conjugates were included at a final concentration of 1:20,000, and incubated for 1 hour. Plates were washed three times again and ready-to-use TMD was added and incubated for 30 minutes. The color reaction was stopped by 2M of Sulfuric Acid. Plates were applied to color read at a wave length of 450 nm.

[2] = target: CFP-tagged and YFP-tagged Fas expressed in Hepa 1-6 cells; assay: cell-based or functional assay
[3] = target: T3, Fas-Fc (extracellular part of Fas) (Mus musculus, UniProt P25446); assay: Fas-Fc pull down assay with protein-A agarose; type: binding; settings: in vitro translated 35S-labeled proteins, autoradiography
T3 construct: purchased R&D
T3 sequence (P25446 22-169 limits assumed): T1 sequence (P25446 22-169 limits assumed)
Source text: The Met alpha but not beta chain binds to Fas (FIG. 1a). Various regions of the mouse Met cDNA corresponding to the alpha chain or the extra-cellular portion of the Met beta chain were cloned into expression vectors (pCRT7 TOPO/AlphaMet or pCRT7 TOPO/beta chain) and subjected to in vitro transcription/translation by a rabbit reticolucyte lysate translation system. Empty vector was included in each experiment as a control. The expressed proteins were labeled with ^35S-Methionine. Pull down assays were performed using Fas-Fc, a chimeric molecule which lacks the interacellular cytoplasmic domain and protein-A agarose as described in Wang et al., 2002. FIG. 1b is a schematic presentation of the Met alpha chain and its mutant version used to map the region interacting with Fas. The C-terminus of each construct contains a hexa-Histidine tag for ease of detection. Start cordon ATG was added to the N-terminally truncated constructs. The YLGA (SEQ ID NO:1) motif mutation was prepared by PCR, in which YLGA (SEQ ID NO:1) was replaced by DHER (SEQ ID NO:24). […] In vitro translated ^35S-methionine labeled truncated/mutated AlphaMet proteins were pulled down with 2 μg of Fas-Fc or the same amount of IgG. Lane 1: 10% of AlphaMet input; Lane 2: AlphaMet with IgG control; Lanes 3 to 8: pull down of various truncated AlphaMet proteins; N-terminal 1-106 residues; C-terminal truncated, residues 1-210; alpha chain, residues 1-306; alpha chain with transmembrane domain, 1-338; N-terminally truncated alpha chain, residues 100-306; and N-terminally truncated with addition of the transmembrane domain 100-338, respectively. FIG. 1d depicts the amino acid sequence alignment of alpha chain with FasL, determined using the CLUSTALW, SIM+LALNVIEW, and ALIGN at ExPASy Proteomic Tools (available on the internet at us.expresly.org/tools). The numbers indicate the amino acid residues of the indicated protein. […] Recombinant His-tagged AlphaMet or its mutant version were expressed in E. coli, purified with chromatography, and subjected to Fas-Fc (lanes labeled Fas) or control IgG pull down experiments, and detected by Western blot using anti-His antibody that recognizes C-terminal His. This antibody also recognizes the Fas-Fc which is also tagged at the C-terminus by His. […] Purified recombinant AlphaMet protein (approximately 10 μg) was mixed with Hepa 1-6 cells or Jurkat cell lysates and subjected to immunoprecicitation using anti-Fas antibody or control IgG followed by Western blot using anti His-tag antibody as a probe. […] After washing the wells, anti-human […]-HRP conjugates (1:20,000) were added to detect the bound Fas-Fc using TMD dye and the OD value was determined at a wavelength of 450 nm. […]

Molecule: FLGA [FLGA tetramer]
Fas binding by ELISA (Fas-Fc): identical binding activity to that of the YLGA tetramer

Molecule: FLGAV
Fas binding by ELISA (Fas-Fc): very active in binding to Fas
inhibition of FasL binding to Fas-Fc (ELISA) [1]: inhibiting FasL binding to Fas

Molecule: HHIFLGATNYIY
Fas binding by ELISA (Fas-Fc): strong Fas-binding activity
inhibition of FasL binding to Fas-Fc (ELISA) [1]: significantly inhibited FasL binding

Molecule: RLGA
Fas binding by ELISA (Fas-Fc): completely lost their Fas binding capacity

Molecule: YLRA
Fas binding by ELISA (Fas-Fc): completely lost their Fas binding capacity

Molecule: YRGA
Fas binding by ELISA (Fas-Fc): completely lost their Fas binding capacity

B1: Met beta chain: extracellular region of Met beta chain (amino acids 308 to 968, with transmembrane portion) (protein)
chain: TREEVFNILQAAYVSKPGANLAKQIGASPSDDILFGVFAQSKPDSAEPVNRSAVCAFPIKYVNDFFNKIVNKNNVRCLQHFYGPNHEHCFNRTLLRNSSGCEARSDEYRTEFTTALQRVDLFMGRLNQVLLTSISTFIKGDLTIANLGTSEGRFMQVVLSRTAHLTPHVNFLLDSHPVSPEVIVEHPSNQNGYTLVVTGKKITKIPLNGLGCGHFQSCSQCLSAPYFIQCGWCHNQCVRFDECPSGTWTQEICLPAVYKVFPTSAPLEGGTVLTICGWDFGFRKNNKFDLRKTKVLLGNESCTLTLSESTTNTLKCTVGPAMSEHFNVSVIISNSRETTQYSAFSYVDPVITSISPRYGPQAGGTLLTLTGKYLNSGNSRHISIGGKTCTLKSVSDSILECYTPAQTTSDEFPVKLKIDLANRETSSFSYREDPVVYEIHPTKSFISGGSTITGIGKTLNSVSLPKLVIDVHEVGVNYTVACQHRSNSEIICCTTPSLKQLGLQLPLKTKAFFLLDGILSKHFDLTYVHNPVFEPFEKPVMISMGNENVVEIKGNNIDPEAVKGEVLKVGNQSCESLHWHSGAVLCTVPSDLLKLNSELNIEWKQAVSSTVLGKVIVQPDQNFAGLIIGAVSISVVVLLLSGLFLWMRKRKHKDLGSELVR
Fas binding in Fas-Fc pull down [3]: not the Met beta chain region bound specifically

The next lines start with the values.

Fas binding by ELISA (Fas-Fc): bound Fas strongly
inhibition of FasL binding to Fas-Fc (ELISA) [1]: significantly inhibited FasL binding
Molecule: AHSSYLGAVFNLT [YLGA-13 mer]

Fas binding by ELISA (Fas-Fc): bound Fas strongly
inhibition of FasL binding to Fas-Fc (ELISA) [1]: significantly inhibited FasL binding
Molecule: FTAETPIQNVVLHGHHIYLGATNYIYVLNDKDLQKV [36 mer]

percent of fluorescent cells showing Fas capping [2]: 30%
Molecule: Jo2, monoclonal anti-Fas antibody

Fas binding by ELISA (Fas-Fc): strong Fas-binding activity
inhibition of FasL binding to Fas-Fc (ELISA) [1]: significantly inhibited FasL binding
Molecule: TGHIYLGAVNRIY [13-mer derived from PlexinA4]
